Results taken from patent US5374506A, “Amino acid sequence for a functional human interleukin-8 receptor” (The United States of America as represented by the …, priority 1991, dated 1994).

Tests used:
human IL-8 receptor [1] = biological target: T1, human IL-8 receptor (Homo sapiens, UniProt P25025); test: calcium efflux assay in Xenopus oocytes injected with p2 cRNA; assay type: cell-based; settings: for calcium mobilization / activation of the IL-8 receptor (result in words): FIG. 2C; for rank order of potency for activating calcium flux: IL-8 receptor expressed by Xenopus oocytes, FIG. 2(C)
T1 construct: expressed in transfected cells; host or cells: Xenopus oocytes injected with p2 cRNA
T1 sequence (P25025 6-360): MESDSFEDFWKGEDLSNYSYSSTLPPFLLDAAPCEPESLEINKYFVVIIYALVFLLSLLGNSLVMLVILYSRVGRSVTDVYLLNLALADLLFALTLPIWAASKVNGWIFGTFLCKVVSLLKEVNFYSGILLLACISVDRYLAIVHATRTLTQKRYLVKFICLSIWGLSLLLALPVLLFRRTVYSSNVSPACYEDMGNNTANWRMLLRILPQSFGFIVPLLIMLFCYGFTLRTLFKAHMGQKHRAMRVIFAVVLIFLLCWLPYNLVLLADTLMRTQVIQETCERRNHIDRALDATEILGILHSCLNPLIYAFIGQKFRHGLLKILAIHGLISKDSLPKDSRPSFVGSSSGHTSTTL
Description: (§1) The materials and methods used for the calcium efflux assay were as described in P. M. Murphy, E. K. Gallin, H. L. Tiffany, J. Immunol. […] Oocytes were microinjected with RNA samples in a total volume of 50 nl per oocyte 3 days after harvesting and were then incubated at 20° to 23° C. for 2 to 4 days. Oocytes were then incubated with ^45 Ca^2+ [50 μCi/ml (ICN Biomedicals, Costa Mesa, Calif.)] for 3 hours. After ten washes with medium, individual oocytes were stimulated with ligand in wells of a 96-well tissue culture plate containing 100 μl of medium. Three 100 μl samples of the incubation medium were collected and analyzed by liquid scintillation counting: a) the final 100 μl wash (20 min) before application of ligand; b) fluid containing the stimulus, removed after a 20 min incubation with the oocyte; and c) the oocyte solubilized in SDS (1%) in medium 20 min after stimulation. Data are presented as the mean±standard error of the mean (SEM) of the percent of loaded ^45 Ca^2+ that was released by individual oocytes in response to the stimulus, or [(b-a).div.(b+c)]×100. FMLP and recombinant human C5a was from Sigma, St. Louis, Mo. Recombinant human IL-8 was from Genzyme, Boston, Mass. Recombinant human NAP-2 was from Bachem, Philadelphia, Pa.

[2] = tested on: oocytes injected with 50 ng of HL60 neutrophil RNA; test: calcium efflux assay in oocytes injected with HL60 neutrophil RNA; assay type: cell-based, Xenopus; settings: oocytes injected with 50 ng HL60 neutrophil RNA
Description: as §1

receptor encoded by p2 = test: binding of 125I-labeled IL-8 and gro to COS cells transiently transfected with pCDNAI-p2; parameters: species or system human; settings: receptor encoded by p2 expressed in COS cells
Description: To further support the data obtained from the oocyte studies, the p2 cDNA was also cloned into the vector pCDNAI. When COS cells are transiently transfected with the pCDNAI-p2 construct, specific binding sites were detected with ^125 I-labeled IL-8 and gro protein. In contrast to the ligand binding affinity in the oocyte environment, the affinity for the ligand when the receptor encoded by p2 was expressed in the COS cell was higher. Specifically, the kd for IL-8 was 2 nM and the kd for gro was 1.3 nM.

[3] = biological target: human interleukin-8 receptor encoded by cDNA clone p2 (human)
recombinant human C5a = recombinant human C5a (human, UniProt P01031); test: displacement of [125I]-IL-8 from Xenopus oocytes injected with p2 cRNA
[4] = biological target: gro (melanoma growth-stimulatory activity) (Homo sapiens (Human), UniProt P09341, 125I label in the COS cell binding experiment); test: binding of 125I-labeled gro to COS cells transiently transfected with pCDNAI-p2
recombinant human IL-8 = recombinant human IL-8 (human, UniProt P10145, 125I label in the binding experiments); test: binding of 125I-labeled IL-8 to COS cells transiently transfected with pCDNAI-p2
human IL-8 receptor [5] = biological target: T1, human IL-8 receptor; test: binding of [125I]-IL-8 to oocytes injected with p2 cRNA; settings: 1 μM competitor
Description: Total ( ) and non-specific binding (.largecircle.) was determined by incubating oocytes injected with p2 cRNA with the indicated concentration of radioligand in the absence or presence of unlabeled IL-8 (1 μM), respectively. The data shown are the mean±SEM of triplicate determinations per point and are representative of two separate experiments. Nonspecific binding was subtracted from total binding to determine specific binding (.quadrature.). […] Specific binding of [^125 I]-IL-8 by oocytes injected with water was undetectable.
IL-8 was iodinated to a specific activity of 260 Ci/mmole as described in H. L. Malech, J. P. Gardner, D. F. Heiman, S. A. Rosenzweig, J. Biol. Chem. 260, 2509 (1985). The radioligand was qualified by binding to human neutrophils. Single oocytes were incubated with [^125 I]-IL-8 for 30 min on ice in 10 μl binding buffer (Hanks balanced salt solution with 25 mM HEPES, 1% bovine serum albumin, pH 7.4). Unbound ligand was removed by pelleting the oocyte through 300 μl F50 silicone fluid (General Electric, Waterford, N.Y.). The tube was quick-frozen and gamma emissions from the amputated tips were counted.

[6] = Xenopus oocytes injected with p2 cRNA

CSCC[C@H](NC=O)C(=O)N[C@@H](CC(C)C)C(=O)N[C@@H](Cc1ccccc1)C(=O)O [FMLP, N-formyl methionyl-leucylphenylalanine, reference compound]
calcium mobilization / activation of the IL-8 receptor (result in words) (human IL-8 receptor [1]; [6]): did not respond
calcium efflux response (percent of loaded 45Ca2+ released) ([2]; 1 μM ligand): 51±3%

IL-8: inflammatory cytokine, potent chemoattractant for neutrophils; recombinant human IL-8 from Genzyme
Kd (receptor encoded by p2): 2 nM
rank order of potency for activating calcium flux (human IL-8 receptor [1]): IL-8>gro>NAP-2
EC50 (human IL-8 receptor [1]; Xenopus oocytes injected with p2 cRNA, FIG. 2A, read-out: EC50 of intracellular calcium mobilization): 20 nM
EC50 in oocytes relative to value reported for human neutrophils (human IL-8 receptor [1]; oocyte EC50 higher than that reported for human neutrophils with recombinant human IL-8): approximately 20 fold

gro: member of the macrophage inflammatory protein-2 (MIP-2) family of cytokines, structurally related to IL-8
Kd (receptor encoded by p2): 1.3 nM
rank order of potency for activating calcium flux (human IL-8 receptor [1]): IL-8>gro>NAP-2

recombinant human IL-8 (from UniProt P10145) (ligand)
calcium efflux (mobilization of intracellular calcium), EC50 [3]: 20 nM

B1: human interleukin-8 receptor encoded by cDNA clone p2 (receptor)
chain: MESDSFEDFWKGEDLSNYSYSSTLPPFLLDAAPCEPESLEINKYFVVIIYALVFLLSLLGNSLVMLVILYSRVGRSVTDVYLLNLALADLLFALTLPIWAASKVNGWIFGTFLCKVVSLLKEVNFYSGILLLACISVDRYLAIVHATRTLTQKRYLVKFICLSIWGLSLLLALPVLLFRRTVYSSNVSPACYEDMGNNTANWRMLLRILPQSFGFIVPLLIMLFCYGFTLRTLFKAHMGQKHRAMRVIFAVVLIFLLCWLPYNLVLLADTLMRTQVIQETCERRNHIDRALDATEILGILHSCLNPLIYAFIGQKFRHGLLKILAIHGLISKDSLPKDSRPSFVGSSSGHTSTTL
binding result (recombinant human C5a): no binding (tested: 1 µM)
Kd [4]: 1.3 nM
Kd (recombinant human IL-8): 2 nM

B2: NAP-2: member of the MIP-2 family of cytokines; recombinant human NAP-2 from Bachem (protein)
chain: AELRCMCIKTTSGIHPKNIQSLEVIGKGTHCNQVEVIATLKDGRKICLDPDAPRIKKIVQKKLAGDESAD
rank order of potency for activating calcium flux (human IL-8 receptor [1]): IL-8>gro>NAP-2

B3: C5a: structurally unrelated chemoattractant, 74 amino acids; recombinant human C5a from Sigma (protein)
chain: TLQKKIEEIAAKYKHSVVKKCCYDGACVNNDETCEQRAARISLGPRCIKAFTECCVVASQLRANISHKDMQLGR
displacement of [125I]-IL-8 (human IL-8 receptor [5]): did not displace
calcium mobilization / activation of the IL-8 receptor (result in words) (human IL-8 receptor [1]; [6]): did not activate
calcium efflux response (percent of loaded 45Ca2+ released) ([2]; 500 nM ligand): 16±5%
